Source: US20050026838A1
Values belong to the molecule of their own block, whether it stands above or below them.

Target: [125I]-FGF-1 binding sites on membranes prepared from adult rat cortex
Assay: displacement of [125I]-FGF-1 by unlabelled FGF, membranes prepared from adult rat cortex

IC50: 0.2 nM
Molecule: FGF-2 (basic FGF) (from UniProt P09038 143-288) (ligand)

IC50: 1 nM
B1: Fibroblast Growth Factor 13 (recombinant human FGF-13, expressed in Escherichia coli) (ligand)
chain: MQGENHPSPNFNQYVRDQGAMTDQLSRRQIREYQLYSRTSGKHVQVTGRRISATAEDGNKFAKLIVETDTFGSRVRIKGAESEKYICMNKRGKLIGKPSGKSKDCVFTEIVLENNYTAFQNARHEGWFMAFTRQGRPRQASRSRQNQREAHFIKRLYQGQLPFPNHAEKQKQFEFVGSAPTRRTKRTRRPQPLT
